For 52 variants, abundance fitness results are on record in the Human Domainome abundance scans (Beltran et al. 2025).

The chains are these.
B1: Cell division cycle and apoptosis regulator protein 1, residues 625 to 674; numbered along this chain, Q8IX12 (parent)
chain: ISTPTHWSKLDPKTMKVNDLRKELESRALSSKGLKSQLIARLTKQLKVEE

± gives the uncertainty stated by the source.

In this series the parent is B1. The experiment in a line: abundance fitness (aPCA) (normalised: wild type 0, dead -1); higher = more abundant; growth selection in yeast, the domain comes from the species named. The settings on record: Homo sapiens.
Take ISTPTHWSKLDPKTAKVNDLRKELESRALSSKGLKSQLIARLTKQLKVEE: the abundance fitness is -0.543 ± 0.043.

ISTPTHWSKLDPITMKVNDLRKELESRALSSKGLKSQLIARLTKQLKVEE: the abundance fitness was -0.052 ± 0.06.

As to ISTPTHWSKLDPYTMKVNDLRKELESRALSSKGLKSQLIARLTKQLKVEE, the abundance fitness is -0.23 ± 0.074.

As to ISTPTHWSKLDPHTMKVNDLRKELESRALSSKGLKSQLIARLTKQLKVEE, the abundance fitness was -0.135 ± 0.061.

In the case of ISTPTHWSKLDPMTMKVNDLRKELESRALSSKGLKSQLIARLTKQLKVEE, the abundance fitness came out at 0.002 ± 0.036.

Turning to ISTPTHWSKLDPLTMKVNDLRKELESRALSSKGLKSQLIARLTKQLKVEE, the abundance fitness was -0.241 ± 0.036.

Take ISTPTHWSKLDPWTMKVNDLRKELESRALSSKGLKSQLIARLTKQLKVEE: the abundance fitness is -0.474 ± 0.034.

As to ISTPTHWSKLDPRTMKVNDLRKELESRALSSKGLKSQLIARLTKQLKVEE, the abundance fitness is -0.221 ± 0.032.

Consider ISTPTHWSKLDPNTMKVNDLRKELESRALSSKGLKSQLIARLTKQLKVEE, for which the abundance fitness turned out to be 0.081 ± 0.067.

With ISTPTHWSKLDPGTMKVNDLRKELESRALSSKGLKSQLIARLTKQLKVEE, the abundance fitness was -0.255 ± 0.036.

For ISTPTHWSKLDPDTMKVNDLRKELESRALSSKGLKSQLIARLTKQLKVEE, the abundance fitness is -0.16 ± 0.054.

Regarding ISTPTHWSKLDPSTMKVNDLRKELESRALSSKGLKSQLIARLTKQLKVEE, the abundance fitness is -0.147 ± 0.03.

In the case of ISTPTHWSKLDPPTMKVNDLRKELESRALSSKGLKSQLIARLTKQLKVEE, the abundance fitness was -0.187 ± 0.047.

On to ISTPTHWSKLDPVTMKVNDLRKELESRALSSKGLKSQLIARLTKQLKVEE, for which the abundance fitness is -0.04 ± 0.029.

With ISTPTHWSKLDPETMKVNDLRKELESRALSSKGLKSQLIARLTKQLKVEE, the abundance fitness was -0.195 ± 0.034.

ISTPTHWSKLDPFTMKVNDLRKELESRALSSKGLKSQLIARLTKQLKVEE: the abundance fitness was -0.308 ± 0.059.

As for ISTPTHWSKLDPATMKVNDLRKELESRALSSKGLKSQLIARLTKQLKVEE, the abundance fitness was -0.094 ± 0.034.

Regarding ISTPTHWSKLDPCTMKVNDLRKELESRALSSKGLKSQLIARLTKQLKVEE, the abundance fitness is -0.302 ± 0.066.

In the case of ISTPTHWSKLDPTTMKVNDLRKELESRALSSKGLKSQLIARLTKQLKVEE, the abundance fitness was -0.13 ± 0.046.

Take ISTPTHWSKLDPQTMKVNDLRKELESRALSSKGLKSQLIARLTKQLKVEE: the abundance fitness is -0.13 ± 0.032.

With ISTPTHWSKSDPKTMKVNDLRKELESRALSSKGLKSQLIARLTKQLKVEE, the abundance fitness is -0.577 ± 0.033.

Take ISTPTHWSKGDPKTMKVNDLRKELESRALSSKGLKSQLIARLTKQLKVEE: the abundance fitness was -0.562 ± 0.041.

For ISTPTHWSKNDPKTMKVNDLRKELESRALSSKGLKSQLIARLTKQLKVEE, the abundance fitness was -0.516 ± 0.069.

With ISTPTHWSKIDPKTMKVNDLRKELESRALSSKGLKSQLIARLTKQLKVEE, the abundance fitness is -0.203 ± 0.06.

For ISTPTHWSKADPKTMKVNDLRKELESRALSSKGLKSQLIARLTKQLKVEE, the abundance fitness was -0.474 ± 0.041.

Regarding ISTPTHWSKEDPKTMKVNDLRKELESRALSSKGLKSQLIARLTKQLKVEE, the abundance fitness is -0.704 ± 0.064.

ISTPTHWSKQDPKTMKVNDLRKELESRALSSKGLKSQLIARLTKQLKVEE: the abundance fitness was -0.516 ± 0.033.

As for ISTPTHWSKWDPKTMKVNDLRKELESRALSSKGLKSQLIARLTKQLKVEE, the abundance fitness is -0.953 ± 0.068.

As to ISTPTHWSKYDPKTMKVNDLRKELESRALSSKGLKSQLIARLTKQLKVEE, the abundance fitness is -0.709 ± 0.052.

As to ISTPTHWSKMDPKTMKVNDLRKELESRALSSKGLKSQLIARLTKQLKVEE, the abundance fitness is -0.107 ± 0.038.

For the variant ISTPTHWSKRDPKTMKVNDLRKELESRALSSKGLKSQLIARLTKQLKVEE, the abundance fitness is -0.593 ± 0.032.

On to ISTPTHWSKVDPKTMKVNDLRKELESRALSSKGLKSQLIARLTKQLKVEE, for which the abundance fitness is -0.231 ± 0.033.

Take ISTPTHWSKKDPKTMKVNDLRKELESRALSSKGLKSQLIARLTKQLKVEE: the abundance fitness is -0.538 ± 0.061.

On to ISTPTHWSKCDPKTMKVNDLRKELESRALSSKGLKSQLIARLTKQLKVEE, for which the abundance fitness was -0.338 ± 0.05.

Consider ISTPTHWSKHDPKTMKVNDLRKELESRALSSKGLKSQLIARLTKQLKVEE, for which the abundance fitness is -0.701 ± 0.073.

In the case of ISTPTHWSKFDPKTMKVNDLRKELESRALSSKGLKSQLIARLTKQLKVEE, the abundance fitness was -0.535 ± 0.06.

In the case of ISTPTHWSKPDPKTMKVNDLRKELESRALSSKGLKSQLIARLTKQLKVEE, the abundance fitness is -0.606 ± 0.059.

With ISTPTHWSKDDPKTMKVNDLRKELESRALSSKGLKSQLIARLTKQLKVEE, the abundance fitness is -0.748 ± 0.038.

Turning to ISTPTHWSKLQPKTMKVNDLRKELESRALSSKGLKSQLIARLTKQLKVEE, the abundance fitness is 0.072 ± 0.04.

Consider ISTPTHWSKLCPKTMKVNDLRKELESRALSSKGLKSQLIARLTKQLKVEE, for which the abundance fitness is 0.093 ± 0.031.

Regarding ISTPTHWSKLSPKTMKVNDLRKELESRALSSKGLKSQLIARLTKQLKVEE, the abundance fitness stood at 0.051 ± 0.039.

For the variant ISTPTHWSKLYPKTMKVNDLRKELESRALSSKGLKSQLIARLTKQLKVEE, the abundance fitness was -0.036 ± 0.034.

With ISTPTHWSKLHPKTMKVNDLRKELESRALSSKGLKSQLIARLTKQLKVEE, the abundance fitness was 0.074 ± 0.06.

As for ISTPTHWSKLMPKTMKVNDLRKELESRALSSKGLKSQLIARLTKQLKVEE, the abundance fitness came to 0.028 ± 0.03.

With ISTPTHWSKLWPKTMKVNDLRKELESRALSSKGLKSQLIARLTKQLKVEE, the abundance fitness was -0.109 ± 0.041.

Regarding ISTPTHWSKLTPKTMKVNDLRKELESRALSSKGLKSQLIARLTKQLKVEE, the abundance fitness worked out at 0.218 ± 0.054.

Regarding ISTPTHWSKLPPKTMKVNDLRKELESRALSSKGLKSQLIARLTKQLKVEE, the abundance fitness is -0.738 ± 0.099.

Consider ISTPTHWSKLGPKTMKVNDLRKELESRALSSKGLKSQLIARLTKQLKVEE, for which the abundance fitness was -0.335 ± 0.032.

As to ISTPTHWSKLAPKTMKVNDLRKELESRALSSKGLKSQLIARLTKQLKVEE, the abundance fitness stood at 0.043 ± 0.037.

Regarding ISTPTHWSKLKPKTMKVNDLRKELESRALSSKGLKSQLIARLTKQLKVEE, the abundance fitness is 0.154 ± 0.059.

For the variant ISTPTHWSKLEPKTMKVNDLRKELESRALSSKGLKSQLIARLTKQLKVEE, the abundance fitness was 0.071 ± 0.048.

Turning to ISTPTHWSKLRPKTMKVNDLRKELESRALSSKGLKSQLIARLTKQLKVEE, the abundance fitness turned out to be 0.078 ± 0.035.
